Values of other authors as cited in patent US6446032B1, “Designing compounds specifically inhibiting ribonucleic acid by binding to the minor groove” (Massachusetts Institute of Technology, priority 1990, dated 2002).

System: normal cells as well as tumor cells
Details: binds and cleaves all rRNAs

B1: Alpha-sarcin: cytotoxic protein with potent antisarcoma activity, isolated from a mold, that inactivates ribosomes by cleaving the rRNA (protein, UniProt P00655 28-177, looked up)
Ribonuclease alpha-sarcin: AVTWTCLNDQKNPKTNKYETKRLLYNQNKAESNSHHAPLSDGKTGSSYPHWFTNGYDGDGKLPKGRTPIKFGKSDCDRPPKHSKDGNGKTDHYLLEFPTFPDGHDYKFDSKKPKENPGPARVIYTYPNKVFCGIIAHTKENQGELKLCSH
toxicity to cells: highly toxic to normal cells as well as tumor cells
